{"source": "ChEMBL document CHEMBL1155806", "about": "“Inorganic polyhedral metallacarborane inhibitors of HIV protease: a new approach to overcoming antiviral resistance” (J Med Chem, 2008)", "key": {"[1]": {"system": "Cc1c(O)cccc1C(=O)N[C@@H](CSc1ccccc1)[C@H](O)CN1C[C@H]2CCCC[C@H]2C[C@H]1C(=O)NC(C)(C)C", "conditions": "Human immunodeficiency virus 1"}, "[2]": {"system": "Cc1c(O)cccc1C(=O)N[C@@H](CSc1ccccc1)[C@H](O)CN1C[C@H]2CCCC[C@H]2C[C@H]1C(=O)NC(C)(C)C", "conditions": "Human immunodeficiency virus 1", "remark": "listed apart in the source"}, "[3]": {"system": "Cc1c(O)cccc1C(=O)N[C@@H](CSc1ccccc1)[C@H](O)CN1C[C@H]2CCCC[C@H]2C[C@H]1C(=O)NC(C)(C)C", "conditions": "Human immunodeficiency virus 1", "remark": "listed apart in the source"}, "[4]": {"system": "Cc1c(O)cccc1C(=O)N[C@@H](CSc1ccccc1)[C@H](O)CN1C[C@H]2CCCC[C@H]2C[C@H]1C(=O)NC(C)(C)C", "conditions": "Human immunodeficiency virus 1", "remark": "listed apart in the source"}, "[5]": {"system": "Cc1c(O)cccc1C(=O)N[C@@H](CSc1ccccc1)[C@H](O)CN1C[C@H]2CCCC[C@H]2C[C@H]1C(=O)NC(C)(C)C", "conditions": "Human immunodeficiency virus 1", "remark": "listed apart in the source"}, "[6]": {"system": "Cc1c(O)cccc1C(=O)N[C@@H](CSc1ccccc1)[C@H](O)CN1C[C@H]2CCCC[C@H]2C[C@H]1C(=O)NC(C)(C)C", "conditions": "Human immunodeficiency virus 1", "remark": "listed apart in the source"}, "[7]": {"system": "Cc1c(O)cccc1C(=O)N[C@@H](CSc1ccccc1)[C@H](O)CN1C[C@H]2CCCC[C@H]2C[C@H]1C(=O)NC(C)(C)C", "conditions": "Human immunodeficiency virus 1", "remark": "listed apart in the source"}, "[8]": {"system": "Cc1c(O)cccc1C(=O)N[C@@H](CSc1ccccc1)[C@H](O)CN1C[C@H]2CCCC[C@H]2C[C@H]1C(=O)NC(C)(C)C", "conditions": "Human immunodeficiency virus 1; BH10"}}}
{"substance": "Human immunodeficiency virus type 1 protease (Human immunodeficiency virus 1), Q72874 A71V,V82T,I84V", "values": [{"measurement": "Km", "setting": "[1]", "result": 36, "unit": "µM"}, {"measurement": "kcat", "setting": "[1]", "result": 11, "unit": "s⁻¹"}]}
{"substance": "Human immunodeficiency virus type 1 protease (Human immunodeficiency virus 1), Q72874 D30N,N88D", "values": [{"measurement": "Km", "setting": "[2]", "result": 18, "unit": "µM"}, {"measurement": "kcat", "setting": "[2]", "result": 24, "unit": "s⁻¹"}]}
{"substance": "Human immunodeficiency virus type 1 protease (Human immunodeficiency virus 1), Q72874 L10F,L19I,K20R,L33F,E35D,M36I,R41K,F53L,I54V,L63P,H69K,A71V,T74P,I84V,L89M,L90M,I93L", "values": [{"measurement": "Km", "setting": "[3]", "result": 13, "unit": "µM"}, {"measurement": "kcat", "setting": "[3]", "result": 10, "unit": "s⁻¹"}]}
{"substance": "Human immunodeficiency virus type 1 protease (Human immunodeficiency virus 1), Q72874 L10I,I15V,E35D,N37S,R41K,I62V,L63P,A71V,G73S,L90M", "values": [{"measurement": "Km", "setting": "[4]", "result": 8.3, "unit": "µM"}, {"measurement": "kcat", "setting": "[4]", "result": 12, "unit": "s⁻¹"}]}
{"substance": "Human immunodeficiency virus type 1 protease (Human immunodeficiency virus 1), Q72874 L10I,L24I,L33F,M46L,I54V,L63P,A71V,V82A,I84V", "values": [{"measurement": "Km", "setting": "[5]", "result": 14, "unit": "µM"}, {"measurement": "kcat", "setting": "[5]", "result": 6.4, "unit": "s⁻¹"}]}
{"substance": "Human immunodeficiency virus type 1 protease (Human immunodeficiency virus 1), Q72874 M46I,A71V,V82T,I84V", "values": [{"measurement": "Km", "setting": "[6]", "result": 48, "unit": "µM"}, {"measurement": "kcat", "setting": "[6]", "result": 14, "unit": "s⁻¹"}]}
{"substance": "Human immunodeficiency virus type 1 protease (Human immunodeficiency virus 1), Q72874 V32I,I47A", "values": [{"measurement": "Km", "setting": "[7]", "result": 35, "unit": "µM"}, {"measurement": "kcat", "setting": "[7]", "result": 7.5, "unit": "s⁻¹"}]}
{"substance": "Protease (Human immunodeficiency virus 1), Q9YQ12", "values": [{"measurement": "Km", "setting": "[8]", "result": 15, "unit": "µM"}, {"measurement": "kcat", "setting": "[8]", "result": 30, "unit": "s⁻¹"}]}
